Measured values published in paper PMC9256704 (2022).

Molecular target: T1, recombinant TRIB2 protein (TP301210, OriGene), biotinylated (human, UniProt Q92519 1-343, biotinylated)
T1 chain: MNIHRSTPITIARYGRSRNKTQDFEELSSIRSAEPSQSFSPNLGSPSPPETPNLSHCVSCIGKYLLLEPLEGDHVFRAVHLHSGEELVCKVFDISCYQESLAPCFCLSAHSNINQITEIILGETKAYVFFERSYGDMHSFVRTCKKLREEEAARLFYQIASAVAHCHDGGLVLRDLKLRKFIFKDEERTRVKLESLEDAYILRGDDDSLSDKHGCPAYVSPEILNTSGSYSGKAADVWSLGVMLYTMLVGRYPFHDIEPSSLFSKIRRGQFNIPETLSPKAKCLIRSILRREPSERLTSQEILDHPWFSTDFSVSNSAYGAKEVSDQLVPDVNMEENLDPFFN
Test: BLI

koff: 0.0175 s⁻¹
B1: PKM2 (ab89364, Abcam) (natural protein)
chain: not shown
